For this assay, the target named is another dynein heavy chain (unidentified second DHC of dynein-X) (Lytechinus variegatus (endogenous in sperm)). In words: cryo-EM structure.

This is an account of results in paper PMC11785096.

“DNAHX (dynein heavy chain, XP_041462850) (natural protein)” had a percent of DNAHX particles in a two-headed dynein complex (open conformation) of 27% and a percent of DNAHX particles in phi particle dynein of 13%.
